The results in this text go back to PMC5981002, “Probing the interaction interface of the GADD45β/MKK7 and MKK7/DTP3 complexes by chemical cross-linking mass spectrometry” (International Journal of Biological Macromolecules, 2018).

The target of assay [1] is His6-MKK7 Kinase Domain (MKK7_KD, residues 101–405, Ser271Asp and Thr275Asp) (UniProt O14733). Kind of assay: other fluorescence titration; tryptophan fluorescence quenching; 1.25 μM MKK7_KD in 10 mM phosphate buffer pH 7.5, peptide added stepwise, 25.0 °C, excitation 295 nm, emission read at 333 nm.
The target in assay [2] is T1, Recombinant His6-GADD45β, O75293.
T1 chain: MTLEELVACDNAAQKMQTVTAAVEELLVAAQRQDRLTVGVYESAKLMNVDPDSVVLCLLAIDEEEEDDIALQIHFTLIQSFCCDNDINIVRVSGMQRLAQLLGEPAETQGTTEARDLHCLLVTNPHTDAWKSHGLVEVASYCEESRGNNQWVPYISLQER
As to the kind of experiment: cross-linking; SDA reacted first with GADD45β (preliminary reaction order), then photo-cross-linking. To be noted: remark: other sources report otherwise.

The target in assay [3] is T2, His6-MKK7 Kinase Domain (MKK7_KD, residues 101–405, Ser271Asp and Thr275Asp) (UniProt O14733 101-405, Ser271Asp | Thr275Asp).
T2 construct: Theoretical mass with tag is printed as 36194.8 Da; In the GADD45β cross-linking experiment this protein was first labelled on amines with SDA (NHS-diazirine); also called MKK7_KD 101–405; MKK7_KD (101–405); source: E. coli BL21(DE3), pETDuet-1, purified (His-Trap, Superdex 75 gel filtration)
T2 sequence (looked up): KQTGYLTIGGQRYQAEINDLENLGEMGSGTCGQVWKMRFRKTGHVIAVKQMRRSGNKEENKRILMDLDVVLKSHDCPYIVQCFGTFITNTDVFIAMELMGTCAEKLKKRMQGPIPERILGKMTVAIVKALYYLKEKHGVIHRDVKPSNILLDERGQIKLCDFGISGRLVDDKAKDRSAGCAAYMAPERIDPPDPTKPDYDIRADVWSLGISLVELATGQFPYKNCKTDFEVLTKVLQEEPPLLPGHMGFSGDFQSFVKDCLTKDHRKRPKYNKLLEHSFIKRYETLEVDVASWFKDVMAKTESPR
As to the kind of experiment: ELISA; MKK7_KD coated on polystyrene wells at 100 nM; biotinylated GADD45β at 10–160 nM; detection with Streptavidin-HRP; 1:1 curve fit. To be noted: both partners purified.

Assay [4] has as its target T2, His6-MKK7 Kinase Domain (MKK7_KD, …). As to the kind of experiment: SPR; Biacore3000; GADD45β covalently immobilised on a CM5 chip (EDC/NHS, pH 3.5), soluble MKK7_KD injected; KD averaged over the values at the various concentrations. As to conditions: both partners purified. For orientation: SPR reads the build-up and loss of mass on a sensor chip optically.

The term Kd denotes the constant that tells how readily two partners part at equilibrium. Read a high Kd as lower affinity. The molecule “DTP3 (Ac-D-Tyr-D-Arg-D-Phe-NH2) (peptide)” returned a Kd in assay [1] of 100 nM.

B1: Recombinant His6-GADD45β, O75293 1-160 (natural protein)
chain: T1 chain
In general, stoichiometry N refers to a count of units in the complex or per binding partner. With B1, the stoichiometry N in assay [2] is 2.

B2: biotinylated GADD45β (natural protein, UniProt O75293 1-160, looked up)
chain: T1 chain
modifications: biotin (site not stated)
notes: GADD45β, UniProt O75293, 160 amino acids; as m1, biotinylated; also called biotin-GADD45β; biotinylated variant of GADD45β; source: E. coli BL21(DE3), pET28a, purified (His-Trap, gel filtration), biotinylated
B2 displayed a Kd in assay [3] of around 30 nM.

B3: Recombinant His6-GADD45β (natural protein, UniProt O75293 1-160, looked up)
chain: T1 chain
notes: GADD45β, UniProt O75293, 160 amino acids; The theoretical mass of the tagged protein is printed as 19196.6 Da, against 17,818 Da for the 160-residue protein; also called Growth arrest and DNA-damage-inducible GADD45-family member GADD45β; source: E. coli BL21(DE3), pET28a, purified (His-Trap, Superdex 75 gel filtration)
In turn, B3 gave a dissociation constant Kd in assay [4] of around 6 nM.
